Molecular target: FGFR1c/alpha-klotho receptor complex, human, pre-formed (SPR analyte) (human) (UniProt P11362)
Experiment: SPR competition: FGF23 on the chip surface, FGFR1c-alphaKlotho complex in solution mixed with the competitor; Ki listed at the upper right of the sheet

Ki	Binder
31 nM	Wild Type Human FGF23 c-tail 180-251 (72 amino acid peptide) (peptide) peptide: SAEDDSERDPLNVLKPRARMTPAPASCSQELPSAEDNSPMASDPLGVVRGGRVNTHAGGTGPEGCRPFAKFI
46 nM	N-terminal FGF23 c-tail Fc fusion (Fc fusion, not shown: a dimerising Fc or GST; small tags and cut ends) SAEDDSERDPLNVLKPRARMTPAPASCSQELPSAEDNSPMASDPLGVVRGGRVNTHAGGTGPEGCRPFAKFI

Source: patent US20170226172A1
